From patent publication US6541002B1, “Compositions and methods for providing a protein to a virion” (Thomas Jefferson University, priority 1998, dated 2003)

B1: dWF-IN: dWF peptide (SEQ ID NO: 1) fused at its carboxyl terminus to the amino terminus of HIV-1 IN (protein)
chain: MQPWWAFFGGGSSWWSFSMGPTRFLDGIDKAQEEHEKYHSNWRAMASDFNLPPVVAKEIVASCDKCQLKGEAMHGQVDCSPGIWQLDCTHLEGKVILVAVHVASGYIEAEVIPAETGQETAYFLLKLAGRWPVKTVHTDNGSNFTSTTVKAACWWAGIKQEFGIPYNPQSQGVIESMNKELKKIIGQVRDQAEHLKTAVQMAVFIHNFKRKGGIGGYSAGERIVDIIATDIQTKELQKQITKIQNFRVYYRDSRDPVWKGPAKLLWKGEGAVVIQDNSDIKVVPRRKAKIIRDYGKQMAGDDCVASRQDED
B2: dWF-PR-IN: dWF peptide (SEQ ID NO: 1) fused to the HIV-1 protease cleavage site (PR), which is fused to the amino terminus of IN (protein)
chain: B1 chain
modifications: left off: small tags and cut ends
B3: WF-CAT (protein)
chain: MQPWWAFFGGGSSWWSFSMGPTRMEKKITGYTTVDISQWHRKEHFEAFQSVAQCTYNQTVQLDITAFLKTVKKNKHKFYPAFIHILARLMNAHPEFRMAMKDGELVIWDSVHPCYTVFHEQTETFSSLWSEYHDDFRQFLHIYSQDVACYGENLAYFPKGFIENMFFVSANPWVSFTSFDLNVANMDNFFAPVFTMGKYYTQGDKVLMPLAIQVHHAVCDGFHVGRMLNELQQYCDEWQGGA
B4: CAT: chloramphenicol acetyltransferase, a protein which does not normally comprise a Vpr-binding region (protein)
chain: MEKKITGYTTVDISQWHRKEHFEAFQSVAQCTYNQTVQLDITAFLKTVKKNKHKFYPAFIHILARLMNAHPEFRMAMKDGELVIWDSVHPCYTVFHEQTETFSSLWSEYHDDFRQFLHIYSQDVACYGENLAYFPKGFIENMFFVSANPWVSFTSFDLNVANMDNFFAPVFTMGKYYTQGDKVLMPLAIQVHHAVCDGFHVGRMLNELQQYCDEWQGGA

Tests used:
HIV-1 virions [1] = experiment: Western blotting analyses of complemented HIV-1 virions; conditions: integration-competent progeny virions
Description: 293T cells were grown in duplicate 100×20 millimeter culture dishes and transfected as described in the previous section. Virions released into the cell culture medium 2 ½ to 3 days post-transfection were centrifuged at 2000 rpm for 5 minutes at 4° C. to remove cellular debris. Afterward, virions were concentrated by adding 10 milliliters of cell medium atop 2 milliliters of buffered, isotonic 20% (w/v) sucrose, and ultracentrifuging the cushioned medium at 40,000 rpm for 2 hours. The bulk of the solution was removed by careful pipetting, and pelleted virions (visible as slight white pellets) were removed from the bottom of the ultracentrifuge tubes by resuspension in residual medium, typically resulting in a volume of 60 to 100 microliters of concentrated virus particles.
Particles were loaded into 10-20% (w/v) Tris-HCl or Tris-tricine precast gradient gels (Bio-Rad Laboratories, Richmond, Calif.) and electrophoresed until the bromphenyl blue marker migrated to at least the bottom of the gel. […] IN or IN chimera proteins were detected using a rabbit anti-IN polyclonal serum and visualized by chemiluminescence development (NEN Life Science Products) of bound HRP-conjugated anti-rabbit 1gG antisera used at 1/1500 dilution (Sigma Chemical Co., St. Louis, Mo.).

[2] = tested on: IN-Defective HIV-1 Particles; experiment: Syncytia formation assay with IN-defective HIV-1 particles complemented with IN chimeras; type: cell-based
Text: Using the calcium phosphate method for delivery of DNA into cells (Profection™, Promega Corp., Madison, Wis.), cells of human kidney carcinoma cell line 293T were transfected using HIV-1 proviral clones or co-transfected with these templates and SLX-CMV-VPR-IN, SLX-CMV-VPR-PR-IN, SLX-CMV-WF-IN, or SLX-CMV-dWF-PR-IN. Three days post-transfection, cell supernatants containing virus were harvested and clarified by low-speed centrifugation. HeLa-CD4-LTR/β-gal cells grown in either 60×14 or 35×10 millimeter plates were infected in duplicate at about 10-15% confluence using various viral stocks. Addition of supernatant to these MAGI reporter cells was adjusted, based upon HIV-1 p24 antigen content as quantitated by ELISA analysis (Kimpton et al., 1992, J. Virol. 66:2232-2239). MAGI cells contain an integrated cassette comprising the β-galactoside gene (β-gal) under the control of the HIV-1 long terminal repeat, and therefore can be stained for β-galactosidase activity (typically 48-72 hours post-infection).
Infected cells were fixed in a solution comprising 0.2% (v/v) glutaraldehyde and 1% (v/v) formaldehyde for 5 minutes at room temperature. Following fixation, cells were washed with phosphate buffered saline and stained using bromo-4-chloro-3-indolyl-β-D-galactopyranoside for 2 hours at 37° C. Representative fields of stained cells were photographed and numbers of deeply stained syncytia were determined either by visual counting through a microscope or from series of photographs taken in various fields of the stained cells using an Olympus CK2 microscope.
IN activity was detected using the syncytia formation assay described in this Example.

HIV-1 virions [3] = experiment: CAT activity assay of HIV-1 virions from co-transfected 293T cells (incorporation into virions); type: cell-based
Description: About 10^6 293T cells were grown in dishes having a diameter of 10 centimeters. These cells were co-transfected with 10 micrograms of either plasmid pNL4-3 or plasmid pNL4-3DVpr, and with 10 micrograms of a plasmid selected from the group consisting of plasmid pSLXCMV-CAT, plasmid pSLXCMV-VPR-CAT, and plasmid pSLXCMV-dWF-CAT. After transfection, the cells were incubated in medium for about seven hours. The medium was then removed and replaced with fresh medium, and cells and medium were collected about forty-eight hours after the medium was replaced. At that time, the medium comprised virus produced by the cells. The amount of virus present in the medium was determined by assessing the amount of HIV-1 p24 antigen in the medium, using a p24 ELISA kit obtained from Dupont (Wilmington, Del.).
CAT activity assays were performed as described (Refaeli et al., 1995, Proc. Natl. Acad. Sci. USA 92:3621-3625). Briefly, about 10^6 transfected cells were harvested by centrifugation. Pelleted cells were lysed in 0.9 milliliter of CAT lysis buffer (Promega Corp., Madison, Wis.) to yield a crude extract. 50 microliters of crude extract was used in CAT assays, and the results of the assays were normalized to account for variation in the protein content of the various crude extracts which were made.
Virions obtained from the medium in which transfected 293T cells were grown were concentrated by ultracentrifuging the medium in a Sorval A-621 rotor for about three hours at 20,000 rotations per minute. […] The amount of HIV-1 p24 antigen in each fraction was assessed, and fractions containing the greatest amounts of p24 were selected. […] CAT activity was assessed in lysed virion preparations.
CAT activity was assessed by thin-layer chromatographic separation of ^14C-chloramphenicol from its acetylated derivatives. Radioactivity was quantitated by standard liquid scintillation methods. […]

[4] = HIV-1 provirus template D116N (Table 4)
[5] = HIV-1 provirus template D116N, average of duplicate experiments (Table 4)
[6] = HIV-1 provirus template IN (1-4) (Table 5)
[7] = HIV-1 provirus template IN (1-234) (Table 5)
[8] = virions from 293T cells co-transfected with pNL4-3 (Vpr expressed)

Molecule | amount of fusion protein incorporated into progeny virions (HIV-1 virions [1]) | % of Wild Type (syncytia) [2, 4] | Number of Syncytia Formed [2, 5] | Number of Syncytia Formed [2, 6] | Number of Syncytia Formed [2, 7] | % of Wild Type (syncytia) ([2]; HIV-1 provirus template IN (1-234) (Table 4)) | Number of Syncytia Formed ([2]; HIV-1 provirus template IN (1-234), average of duplicate experiments (Table 4)) | CAT activity of virions (conversion of chloramphenicol to an acetylated product) (HIV-1 virions [3]; [8]) | CAT activity of virions (conversion of chloramphenicol to an acetylated product) (HIV-1 virions [3]; virions from 293T cells co-transfected with pNL4-3DVpr (Vpr not expressed))
B1 | equal to the amount of IN(D116N) protein incorporated into progeny virions | 20.8% | 42 | 10 | 14 |  |  |  | 
B2 |  | 25.7% | 52 | 18 | 20 | 21.7% | 44 |  | 
B3 |  |  |  |  |  |  |  | 28 % conversion | 8 % conversion
B4 |  |  |  |  |  |  |  | 8 % conversion | 
